For this assay, the target named is 新冠病毒S1-RBD蛋白 (新冠病毒 (SARS-CoV-2), UniProt P0DTC2 319-541). Put plainly: […] (BLI), […], antibody 118 nM to 1.88 nM, 1:1 model.

B1: Nluc-chC25抗体 (antibody, human IgG1)
light: NIVLTQSPVSLAVSLGQRATISCRASESVDSYGNSFMHWYQQKPGQPPKLLIYIASNLESGVPARFSGGGSRTDFTLTIDPVEADDAATYYCQQNYEDPWTFGGGTKLEIKRADAAPSVFIFPPSDEQLKSGTASVVCLLNNFYPREAKVQWKVDNALQSGNSQESVTEQDSKDSTYSLSSTLTLSKADYEKHKVYACEVTHQGLSSPVTKSFNRGEC
heavy: not shown
notes: also called Nluc-chC25重组抗体; Nluc标记重组抗体
What is called Kd is the constant that tells how readily two partners part at equilibrium. Consider B1, for which the Kd stood at 0.0151 nM.

B2: HRP-chC25抗体 (antibody, human IgG1)
light: B1 light
heavy: not shown
notes: also called HRP标记重组抗体; HRP-2C5
In turn, B2 showed a Kd of 0.0375 nM.

Source of the values: patent CN117368459A (INST MILITARY MEDICINE ACADEMY MILITARY SCIENCES PLA, dated 2024).
